This note sets out measurements from CN111196850A (BEIJING HUIZHI HEYUAN BIOTECHNOLOGY CO LTD, dated 2020).

For one assay, the target named is T1, rhTSLP-mFc融合蛋白 (human).
T1 construct: Expressed in 293F cells and purified on protein A; also called 人重组TSLP蛋白
The assay is described as follows: ELISA: rhTSLP-mFc coated, goat anti-human IgG-HRP detection. In general terms: In an ELISA, binding on a coated surface is turned into a signal by an enzyme label.

In assay [1] the target is rhTSLP-hFc (human). Briefly: cell-based or functional assay.
The next assay concerns the target T2, 人TSLP (human, UniProt Q969D9 29-159).
T2 construct: also called hTSLP; 人胸腺基质淋巴细胞生成素
The assay is described as follows: BLI (ForteBio Blitz). Background: In BLI a coated tip is dipped into the sample, and binding shifts an interference pattern.

Assay [2] deals with rhTSLP-hFc (human). The assay is described as follows: competition ELISA: rhTSLP-hFc coated, antibody titrated against 2 μg/ml rhTSLPR-His, anti-His-HRP detection.

B1: 人源化单克隆抗体6K1/3H2 (antibody, human IgG1, kappa, V domains shown)
VH: QVQLVQSGAELKKPGASVKISCKASGFNIKDYYMHWVRQRPEQGLEWIGWIDPENGNTIYAQKFQGRATITADTSTDTAYMELSSLTSEDTAVYYCAREGDGNYLWFAYWGQGTLVTVSS
VL: DIQMTQSPSSLSASVGGKVTITCKASQDINKYIAWYQQKPGKGPKLLIHYTSTLEPGVPSRFSGSGSGRDFTFSISSLQPEDIATYYCLHYDNLLTFGGGTKVEIKR
notes: Humanized from 6K/3H; expressed in 293F cells
Regarding B1, the binding result with rhTSLP-mFc融合蛋白 was “binds”.

B2: 人源化单克隆抗体6K2/3H3 (antibody, human IgG1, kappa, V domains shown)
VH: EVQLVESGAEVVKPGALVKVSCKASGFNIKDYYMHWVRQRPGQGLEWIGWIDPENGNTIYDQKFQGRVSITADTSTNTAYLELSSLTSEDTAVYYCAREGDGNYLWFAYWGQGTLVTVSS
VL: DIQLTQSPSSLSASVGDKVIITCKASQDINKYIAWYQQKPGKALKLLIHYTSTLETGVPSRFSGSGSGTDYTFSISNLQPEDIATYYCLHYDNLLTFGGGTKVELKR
notes: as for B1
On to B2, for which the binding result with rhTSLP-mFc融合蛋白 is recorded as “binds”.

B3: 人源化单克隆抗体6K3/3H3 (antibody, human IgG1, kappa, V domains shown)
VH: EVQLVESGAEVVKPGALVKVSCKASGFNIKDYYMHWVRQRPGQGLEWIGWIDPENGNTIYDQKFQGRVSITADTSTNTAYLELSSLTSEDTAVYYCAREGDGNYLWFAYWGQGTLVTVSS
VL: DIQMTQSPSSLSASLGDKVTITCKASQDINKYIAWYQHKPGKAPKLLIHYTSTLEPGVPSRFSGSGSGTDFTFSISSLEPEDIATYYCLHYDNLLTFGGGTKLEIKR
notes: as for B1
On to B3, for which the binding result in the assay with rhTSLP-mFc融合蛋白 is “binds”.

B4: 人源化单克隆抗体6K3/3H1 (antibody, human IgG1, kappa, V domains shown)
VH: QVKLVQSGAELVKPGASVKLSCKASGFNIKDYYMHWVRQRPGQGLEWIGWIDPENGNTMYAPKFQGRASITADTSTNTAYMQLSSLRSEDTAVYYCAREGDGNYLWFAYWGQGTLVTVSS
VL: DIQMTQSPSSLSASLGDKVTITCKASQDINKYIAWYQHKPGKAPKLLIHYTSTLEPGVPSRFSGSGSGTDFTFSISSLEPEDIATYYCLHYDNLLTFGGGTKLEIKR
notes: as for B1
Take B4: in the assay with rhTSLP-mFc融合蛋白, the binding result was “binds”.

B5: 人源化单克隆抗体6K2/3H1 (antibody, human IgG1, kappa, V domains shown)
VH: QVKLVQSGAELVKPGASVKLSCKASGFNIKDYYMHWVRQRPGQGLEWIGWIDPENGNTMYAPKFQGRASITADTSTNTAYMQLSSLRSEDTAVYYCAREGDGNYLWFAYWGQGTLVTVSS
VL: DIQLTQSPSSLSASVGDKVIITCKASQDINKYIAWYQQKPGKALKLLIHYTSTLETGVPSRFSGSGSGTDYTFSISNLQPEDIATYYCLHYDNLLTFGGGTKVELKR
notes: as for B1
Regarding B5, the binding result with rhTSLP-mFc融合蛋白 is “binds”.

B6: 人源化单克隆抗体6K3/3H2 (antibody, human IgG1, kappa, V domains shown)
VH: QVQLVQSGAELKKPGASVKISCKASGFNIKDYYMHWVRQRPEQGLEWIGWIDPENGNTIYAQKFQGRATITADTSTDTAYMELSSLTSEDTAVYYCAREGDGNYLWFAYWGQGTLVTVSS
VL: DIQMTQSPSSLSASLGDKVTITCKASQDINKYIAWYQHKPGKAPKLLIHYTSTLEPGVPSRFSGSGSGTDFTFSISSLEPEDIATYYCLHYDNLLTFGGGTKLEIKR
notes: as for B1
As for B6, in the assay with rhTSLP-hFc [1], the “IC50, 抑制TSLP刺激的293F转染细胞STAT5-荧光素酶活性” value was found to be 0.182 µg/mL. Moreover, in the assay with rhTSLP-mFc融合蛋白, the binding result is “binds”.

B7: 人源化单克隆抗体6K2/3H2 (antibody, human IgG1, kappa, V domains shown)
VH: QVQLVQSGAELKKPGASVKISCKASGFNIKDYYMHWVRQRPEQGLEWIGWIDPENGNTIYAQKFQGRATITADTSTDTAYMELSSLTSEDTAVYYCAREGDGNYLWFAYWGQGTLVTVSS
VL: DIQLTQSPSSLSASVGDKVIITCKASQDINKYIAWYQQKPGKALKLLIHYTSTLETGVPSRFSGSGSGTDYTFSISNLQPEDIATYYCLHYDNLLTFGGGTKVELKR
notes: as for B1
Consider B7, for which, in the assay with rhTSLP-mFc融合蛋白, the binding result is reported as “binds”.

B8: 人源化单克隆抗体6K1/3H3 (antibody, human IgG1, kappa, V domains shown)
VH: EVQLVESGAEVVKPGALVKVSCKASGFNIKDYYMHWVRQRPGQGLEWIGWIDPENGNTIYDQKFQGRVSITADTSTNTAYLELSSLTSEDTAVYYCAREGDGNYLWFAYWGQGTLVTVSS
VL: DIQMTQSPSSLSASVGGKVTITCKASQDINKYIAWYQQKPGKGPKLLIHYTSTLEPGVPSRFSGSGSGRDFTFSISSLQPEDIATYYCLHYDNLLTFGGGTKVEIKR
notes: as for B1
With B8, the binding result in the assay with rhTSLP-mFc融合蛋白 was “binds”.

B9: 人源化单克隆抗体6K1/3H1 (antibody, human IgG1, kappa, V domains shown)
VH: QVKLVQSGAELVKPGASVKLSCKASGFNIKDYYMHWVRQRPGQGLEWIGWIDPENGNTMYAPKFQGRASITADTSTNTAYMQLSSLRSEDTAVYYCAREGDGNYLWFAYWGQGTLVTVSS
VL: DIQMTQSPSSLSASVGGKVTITCKASQDINKYIAWYQQKPGKGPKLLIHYTSTLEPGVPSRFSGSGSGRDFTFSISSLQPEDIATYYCLHYDNLLTFGGGTKVEIKR
notes: as for B1
For the molecule B9, the binding result in the assay with rhTSLP-mFc融合蛋白 is “binds”.

B10: 人源化单克隆抗体1K3/1H2 (antibody, human IgG1, kappa, V domains shown)
VH: EVKLVESGGGLVQPGGSLKLSCAASGFTFSSFGMNWVRQAPGKGLEWVAYISSGSSIIYYADSVKGRFTISRDNPKNSLYLQMNSLRDEDTAVYYCAREPYGYDVYYFDYWGQGTTVTVSS
VL: DIVMTQSPASLAVSPGQRATISCKASQSIDYDGDSYMNWYQQKPGQPPKLLIYAASNLDTGIPARFSGSGSGTDFTLTISSVEEEDTATYYCQQSNEDPYTFGGGTKVEIKR
On to B10, for which the “IC50, 抑制TSLP刺激的293F转染细胞STAT5-荧光素酶活性” value with rhTSLP-hFc [1] stood at 3.22 µg/mL.

B11: 人源化单克隆抗体1K1/1H1 (antibody, human IgG1, kappa, V domains shown)
VH: EVQLVESGGGLVQPGGSRRLSCAASGFTFSSFGMNWVRQAPEKGLEWVAYISSGSSIIYYADSVKGRFTISRDNAKNSLYLQMTSLRAEDTAVYYCAREPYGYDVYYFDYWGQGTLVTVSS
VL: DIVMTQSPASLAVSLGQRATITCKASQSIDYDGDSYMNWYQQKPGQPPKLLIYAASNLDSGVPARFSGSGSGTDFTLTIHPVEPEDFATYYCQQSNEDPYTFGGGTKVEIKR
notes: Humanized from 1K/1H; expressed in 293F cells
Turning to B11, the binding result with rhTSLP-mFc融合蛋白 is reported as “binds”.

B12: 人源化单克隆抗体1K3/1H3 (antibody, human IgG1, kappa, V domains shown)
VH: EVQLVESGGGLVQPGGSLRLSCAASGFTFSSFGMHWVRQAPGKGLEWVSYISSGSSIIYYADTVKGRFTISRDNAKNSLFLQMNSLRSEDTAVYYCAREPYGYDVYYFDYWGQGTLVTVSS
VL: DIVMTQSPASLAVSPGQRATISCKASQSIDYDGDSYMNWYQQKPGQPPKLLIYAASNLDTGIPARFSGSGSGTDFTLTISSVEEEDTATYYCQQSNEDPYTFGGGTKVEIKR
notes: as for B11
For B12, the binding result with rhTSLP-mFc融合蛋白 was “binds”.

B13: 人源化单克隆抗体1K2/1H3 (antibody, human IgG1, kappa, V domains shown)
VH: EVQLVESGGGLVQPGGSLRLSCAASGFTFSSFGMHWVRQAPGKGLEWVSYISSGSSIIYYADTVKGRFTISRDNAKNSLFLQMNSLRSEDTAVYYCAREPYGYDVYYFDYWGQGTLVTVSS
VL: DIVLTQSPASLAVSLGQRATITCKASQSIDYDGDSYLNWYQQKPGQPPKLLIYAASNKDSGVPARFSGSGSGTDFTLTINPVEAEDFAVYYCQQSNEDPYTFGGGTKVEIKR
notes: as for B11
In the case of B13, the binding result with rhTSLP-mFc融合蛋白 is on record as “binds”.

B14: 人源化单克隆抗体1K3/1H1 (antibody, human IgG1, kappa, V domains shown)
VH: EVQLVESGGGLVQPGGSRRLSCAASGFTFSSFGMNWVRQAPEKGLEWVAYISSGSSIIYYADSVKGRFTISRDNAKNSLYLQMTSLRAEDTAVYYCAREPYGYDVYYFDYWGQGTLVTVSS
VL: DIVMTQSPASLAVSPGQRATISCKASQSIDYDGDSYMNWYQQKPGQPPKLLIYAASNLDTGIPARFSGSGSGTDFTLTISSVEEEDTATYYCQQSNEDPYTFGGGTKVEIKR
notes: as for B11
Take B14: the binding result with rhTSLP-mFc融合蛋白 is reported as “binds”.

B15: 人源化单克隆抗体1K1/1H3 (antibody, human IgG1, kappa, V domains shown)
VH: EVQLVESGGGLVQPGGSLRLSCAASGFTFSSFGMHWVRQAPGKGLEWVSYISSGSSIIYYADTVKGRFTISRDNAKNSLFLQMNSLRSEDTAVYYCAREPYGYDVYYFDYWGQGTLVTVSS
VL: DIVMTQSPASLAVSLGQRATITCKASQSIDYDGDSYMNWYQQKPGQPPKLLIYAASNLDSGVPARFSGSGSGTDFTLTIHPVEPEDFATYYCQQSNEDPYTFGGGTKVEIKR
notes: as for B11
As to B15, in the assay with rhTSLP-mFc融合蛋白, the binding result is recorded as “binds”.

B16: 人源化单克隆抗体1K2/1H1 (antibody, human IgG1, kappa, V domains shown)
VH: EVQLVESGGGLVQPGGSRRLSCAASGFTFSSFGMNWVRQAPEKGLEWVAYISSGSSIIYYADSVKGRFTISRDNAKNSLYLQMTSLRAEDTAVYYCAREPYGYDVYYFDYWGQGTLVTVSS
VL: DIVLTQSPASLAVSLGQRATITCKASQSIDYDGDSYLNWYQQKPGQPPKLLIYAASNKDSGVPARFSGSGSGTDFTLTINPVEAEDFAVYYCQQSNEDPYTFGGGTKVEIKR
notes: as for B11
On to B16, for which the binding result in the assay with rhTSLP-mFc融合蛋白 is recorded as “binds”.

B17: 鼠源TSLP单克隆抗体3A1H2B2E1(1K/1H) (antibody, mouse IgG1, kappa)
heavy: EVKLVESGGGLVQPGGSRKLSCAASGFTFSSFGMHWVRQAPEKGLEWVAYISSGSSIIHYADTVKGRFTISRDNPKNTLFLQMTSLRSEDTAMYYCAREPYGYDVYYFDYWGQGTTITVSSAKTTPPSVYPLAPGSAAQTNSMVTLGCLVKGYFPEPVTVTWNSGSLSSGVHTFPAVLESDLYTLSSSVTVPSSPRPSETVTCNVAHPASSTKVDKKIVPRDCGCKPCICTVPEVSSVFIFPPKPKDVLTITLTPKVTCVVVDISKDDPEVQFSWFVDDVEVHTAQTQPREEQFNSTFRSVSELPIMHQDWLNGKEFKCRVNSAAFPAPIEKTISKTKGRPKAPQVYTIPPPKEQMAKDKVSLTCMITDFFPEDITVEWQWNGQPAENYKNTQPIMNTNGSYFVYSKLNVQKSNWEAGNTFTCSVLHEGLHNHHTEKSLSHSPGK
light: DIVMTQSPASLAVSLGQRATISCKASQSIDYDGDSYMNWYQQKPGQPPKLLIYAASNLDSGIPARFSGSGSGTDFTLNIHPVEEEDAATYYCQQSNEDPYTFGGGTKLEIKRADAAPTVSIFPPSSEQLTSGGASVVCFLNNFYPKDINVKWKIDGSERQNGVLNSWTDQDSKDSTYSMSSTLTLTKDEYERHNSYTCEATHKTSTSPIVKSFNRNEC
notes: also called 鼠源单克隆抗体1K/1H
One may read the Kd as the equilibrium constant for the complex coming apart. One may read the koff as the first-order rate constant of dissociation. As a reminder, the kon is the second-order rate constant of association. A lower kon goes with slow association. For orientation: IC50 means the concentration needed to halve the response being measured. A high value points to a need for much substance. As to B17, in the assay with 人TSLP, the equilibrium dissociation constant (Kd) worked out at 1.75 nM, the koff worked out at 0.000732 s⁻¹ and the kon amounted to 418000 M⁻¹ s⁻¹. In the assay with rhTSLP-hFc [2], this molecule gave a half-inhibitory concentration (IC50) of 0.324 µg/mL.
